One may read the Kd as the concentration at which binding is half-saturated. Higher therefore signals a looser complex.

For series [1], the target named is WT-ZnF-KLF1 (mouse) (UniProt P46099). The series is described as follows: EMSA. (In general: A gel shift assay detects complexes by their altered migration in electrophoresis.)
Series [2] concerns the target CDA-ZnF-KLF1 E321K (mouse) (UniProt P46099). The series can be described thus: EMSA.

CDA-ZnF-KLF1 E321K (mouse), sequence (P46099 275-358 E321K): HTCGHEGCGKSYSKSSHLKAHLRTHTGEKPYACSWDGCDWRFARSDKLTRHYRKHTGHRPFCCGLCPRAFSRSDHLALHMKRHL
WT-ZnF-KLF1 (mouse), sequence (P46099 275-358): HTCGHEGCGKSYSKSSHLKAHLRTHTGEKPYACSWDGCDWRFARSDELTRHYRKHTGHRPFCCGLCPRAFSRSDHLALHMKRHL

Consider beta-globin site, for which the figures for the Kd in series [1] and in series [2] were 0.548 µM and 238 µM, respectively.

The values are drawn from publication doi:10.1101/774158.
